The Kd is the equilibrium constant for the complex coming apart.

Consider 23 molecules from publication PMC10786891, “Massively parallel profiling of RNA-targeting CRISPR-Cas13d”.

T1: EsCas13d, nuclease-dead (Eubacterium siraeum, UniProt B0MS50, R295A;H300A;R849A;H854A)
T1 sequence: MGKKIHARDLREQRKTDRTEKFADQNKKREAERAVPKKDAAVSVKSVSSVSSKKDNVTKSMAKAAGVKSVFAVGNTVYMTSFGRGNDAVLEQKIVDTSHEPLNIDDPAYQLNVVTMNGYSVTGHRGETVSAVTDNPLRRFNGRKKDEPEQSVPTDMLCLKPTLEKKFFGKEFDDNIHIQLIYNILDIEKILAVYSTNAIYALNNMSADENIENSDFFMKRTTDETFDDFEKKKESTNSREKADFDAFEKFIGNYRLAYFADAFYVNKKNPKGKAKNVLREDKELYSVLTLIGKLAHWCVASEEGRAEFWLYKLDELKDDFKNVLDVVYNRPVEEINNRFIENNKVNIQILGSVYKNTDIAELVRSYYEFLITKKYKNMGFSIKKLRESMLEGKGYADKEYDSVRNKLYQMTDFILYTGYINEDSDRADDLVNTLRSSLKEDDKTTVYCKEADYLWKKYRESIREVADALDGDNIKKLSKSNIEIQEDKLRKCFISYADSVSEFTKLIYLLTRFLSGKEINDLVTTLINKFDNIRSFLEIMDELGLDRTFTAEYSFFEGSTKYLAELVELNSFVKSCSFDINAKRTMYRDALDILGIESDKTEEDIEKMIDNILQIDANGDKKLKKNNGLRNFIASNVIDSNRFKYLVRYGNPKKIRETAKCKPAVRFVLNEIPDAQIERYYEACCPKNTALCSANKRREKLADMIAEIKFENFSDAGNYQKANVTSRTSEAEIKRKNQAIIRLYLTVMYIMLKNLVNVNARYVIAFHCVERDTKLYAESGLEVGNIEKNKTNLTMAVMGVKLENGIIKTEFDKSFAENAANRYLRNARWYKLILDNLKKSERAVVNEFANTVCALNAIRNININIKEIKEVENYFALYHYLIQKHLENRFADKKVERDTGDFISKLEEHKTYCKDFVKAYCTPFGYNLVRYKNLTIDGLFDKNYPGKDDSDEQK

B1: target 2 MT 5'PFS CAU 3'PFS UCA (mixed)
RNA 1: CACCCGUGCAAAAUUGCAGGGGUCUAAAACCUUCUCCAAAUUGUUUCAUCCU
RNA 2: GGGAAUGGAUCCACAUCUACGAAUUCCAUAGGAUGAAACAAUUUGGAGAAGUCAAGAUCGGAAGAGCACACGU
B2: target 2 MT 5'PFS AGA 3'PFS AUA (mixed)
RNA 1: CACCCGUGCAAAAUUGCAGGGGUCUAAAACCUUCUCCAAAUUGUUUCAUCCU
RNA 2: GGGAAUGGAUCCACAUCUACGAAUUCAGAAGGAUGAAACAAUUUGGAGAAGAUAAGAUCGGAAGAGCACACGU
B3: target 2 MT 5'PFS GGG 3'PFS CUG (mixed)
RNA 1: CACCCGUGCAAAAUUGCAGGGGUCUAAAACCUUCUCCAAAUUGUUUCAUCCU
RNA 2: GGGAAUGGAUCCACAUCUACGAAUUCGGGAGGAUGAAACAAUUUGGAGAAGCUGAGAUCGGAAGAGCACACGU
B4: target 2 MT 5'PFS AGA 3'PFS AUG (mixed)
RNA 1: CACCCGUGCAAAAUUGCAGGGGUCUAAAACCUUCUCCAAAUUGUUUCAUCCU
RNA 2: GGGAAUGGAUCCACAUCUACGAAUUCAGAAGGAUGAAACAAUUUGGAGAAGAUGAGAUCGGAAGAGCACACGU
B5: target 2 MT 5'PFS UUA 3'PFS AUG (mixed)
RNA 1: CACCCGUGCAAAAUUGCAGGGGUCUAAAACCUUCUCCAAAUUGUUUCAUCCU
RNA 2: GGGAAUGGAUCCACAUCUACGAAUUCUUAAGGAUGAAACAAUUUGGAGAAGAUGAGAUCGGAAGAGCACACGU
B6: target 2 MT 5'PFS CUU 3'PFS UAG (mixed)
RNA 1: CACCCGUGCAAAAUUGCAGGGGUCUAAAACCUUCUCCAAAUUGUUUCAUCCU
RNA 2: GGGAAUGGAUCCACAUCUACGAAUUCCUUAGGAUGAAACAAUUUGGAGAAGUAGAGAUCGGAAGAGCACACGU
B7: target 2 MT 5'PFS ACU 3'PFS CGU (mixed)
RNA 1: CACCCGUGCAAAAUUGCAGGGGUCUAAAACCUUCUCCAAAUUGUUUCAUCCU
RNA 2: GGGAAUGGAUCCACAUCUACGAAUUCACUAGGAUGAAACAAUUUGGAGAAGCGUAGAUCGGAAGAGCACACGU
B8: target 2 MT 5'PFS GGU 3'PFS AGU (mixed)
RNA 1: CACCCGUGCAAAAUUGCAGGGGUCUAAAACCUUCUCCAAAUUGUUUCAUCCU
RNA 2: GGGAAUGGAUCCACAUCUACGAAUUCGGUAGGAUGAAACAAUUUGGAGAAGAGUAGAUCGGAAGAGCACACGU
B9: target 2 MT 5'PFS CUU 3'PFS UAA (mixed)
RNA 1: CACCCGUGCAAAAUUGCAGGGGUCUAAAACCUUCUCCAAAUUGUUUCAUCCU
RNA 2: GGGAAUGGAUCCACAUCUACGAAUUCCUUAGGAUGAAACAAUUUGGAGAAGUAAAGAUCGGAAGAGCACACGU
B10: target 2 MT 5'PFS GGG 3'PFS CUC (mixed)
RNA 1: CACCCGUGCAAAAUUGCAGGGGUCUAAAACCUUCUCCAAAUUGUUUCAUCCU
RNA 2: GGGAAUGGAUCCACAUCUACGAAUUCGGGAGGAUGAAACAAUUUGGAGAAGCUCAGAUCGGAAGAGCACACGU
B11: target 2 MT 5'PFS AGA 3'PFS AUC (mixed)
RNA 1: CACCCGUGCAAAAUUGCAGGGGUCUAAAACCUUCUCCAAAUUGUUUCAUCCU
RNA 2: GGGAAUGGAUCCACAUCUACGAAUUCAGAAGGAUGAAACAAUUUGGAGAAGAUCAGAUCGGAAGAGCACACGU
B12: target 2 MT 5'PFS CAU 3'PFS UCG (mixed)
RNA 1: CACCCGUGCAAAAUUGCAGGGGUCUAAAACCUUCUCCAAAUUGUUUCAUCCU
RNA 2: GGGAAUGGAUCCACAUCUACGAAUUCCAUAGGAUGAAACAAUUUGGAGAAGUCGAGAUCGGAAGAGCACACGU
B13: target 2 MT 5'PFS UUA 3'PFS AUC (mixed)
RNA 1: CACCCGUGCAAAAUUGCAGGGGUCUAAAACCUUCUCCAAAUUGUUUCAUCCU
RNA 2: GGGAAUGGAUCCACAUCUACGAAUUCUUAAGGAUGAAACAAUUUGGAGAAGAUCAGAUCGGAAGAGCACACGU
B14: target 2 MT 5'PFS GGG 3'PFS CUA (mixed)
RNA 1: CACCCGUGCAAAAUUGCAGGGGUCUAAAACCUUCUCCAAAUUGUUUCAUCCU
RNA 2: GGGAAUGGAUCCACAUCUACGAAUUCGGGAGGAUGAAACAAUUUGGAGAAGCUAAGAUCGGAAGAGCACACGU
B15: target 2 MT 5'PFS UUA 3'PFS AUU (mixed)
RNA 1: CACCCGUGCAAAAUUGCAGGGGUCUAAAACCUUCUCCAAAUUGUUUCAUCCU
RNA 2: GGGAAUGGAUCCACAUCUACGAAUUCUUAAGGAUGAAACAAUUUGGAGAAGAUUAGAUCGGAAGAGCACACGU
B16: target 2 MT 5'PFS CAU 3'PFS UCC (mixed)
RNA 1: CACCCGUGCAAAAUUGCAGGGGUCUAAAACCUUCUCCAAAUUGUUUCAUCCU
RNA 2: GGGAAUGGAUCCACAUCUACGAAUUCCAUAGGAUGAAACAAUUUGGAGAAGUCCAGAUCGGAAGAGCACACGU
B17: target 2 MT 5'PFS CUU 3'PFS UAU (mixed)
RNA 1: CACCCGUGCAAAAUUGCAGGGGUCUAAAACCUUCUCCAAAUUGUUUCAUCCU
RNA 2: GGGAAUGGAUCCACAUCUACGAAUUCCUUAGGAUGAAACAAUUUGGAGAAGUAUAGAUCGGAAGAGCACACGU
B18: target 2 MT 5'PFS CGA 3'PFS UAC (mixed)
RNA 1: CACCCGUGCAAAAUUGCAGGGGUCUAAAACCUUCUCCAAAUUGUUUCAUCCU
RNA 2: GGGAAUGGAUCCACAUCUACGAAUUCCGAAGGAUGAAACAAUUUGGAGAAGUACAGAUCGGAAGAGCACACGU
B19: target 2 MT 5'PFS CUU 3'PFS UAC (mixed)
RNA 1: CACCCGUGCAAAAUUGCAGGGGUCUAAAACCUUCUCCAAAUUGUUUCAUCCU
RNA 2: GGGAAUGGAUCCACAUCUACGAAUUCCUUAGGAUGAAACAAUUUGGAGAAGUACAGAUCGGAAGAGCACACGU
B20: target 2 MT 5'PFS GGG 3'PFS CUU (mixed)
RNA 1: CACCCGUGCAAAAUUGCAGGGGUCUAAAACCUUCUCCAAAUUGUUUCAUCCU
RNA 2: GGGAAUGGAUCCACAUCUACGAAUUCGGGAGGAUGAAACAAUUUGGAGAAGCUUAGAUCGGAAGAGCACACGU
B21: target 2 MT 5'PFS UUA 3'PFS AUA (mixed)
RNA 1: CACCCGUGCAAAAUUGCAGGGGUCUAAAACCUUCUCCAAAUUGUUUCAUCCU
RNA 2: GGGAAUGGAUCCACAUCUACGAAUUCUUAAGGAUGAAACAAUUUGGAGAAGAUAAGAUCGGAAGAGCACACGU
B22: target 1 G5C,A9U (mixed)
RNA 1: CACCCGUGCAAAAAUGCAGGGGUCUAAAACUGAGCGGAUAACCUCUCUAUGG
RNA 2: GGGAAUGGAUCCACAUCUACGAAUUCGUACCAUAGAGAGGUUUUCCCCUCACCGAGAUCGGAAGAGCACACGU
B23: target 1 insG 3' of 22,insG 3' of 4 (mixed)
RNA 1: CACCCGUGCAAAAAUGCAGGGGUCUAAAACUGAGCGGAUAACCUCUCUAUGG
RNA 2: GGGAAUGGAUCCACAUCUACGAAUUCGUACGCAUAGAGAGGUUAUCCGCGUCACCGAGAUCGGAAGAGCACACGU

The target in this data set is T1, EsCas13d, nuclease-dead. The data set is described as follows: crRNA (strand 1, pre-loaded); Mg2+; 40 mM Tris-HCl pH 7.5, 150 mM NaCl, 6 mM MgCl2, 1 mM DTT, 0.1% Tween-20, 0.2 mg/ml BSA; 25 C; 10 min per concentration, then washed. The settings on record: tags: His6-TwinStrep-SUMO cleaved; N-terminal SNAP kept (SNAP-Surface 488); label: 3' end held by stalled T7 RNA polymerase.
For B1, the affinity, expressed as Kd, was 6.4 ± 1.5 nM.
In the case of B2 it was about 5.7 nM.
Then B3, with 11.7 ± 1 nM; and B4, with 8.2 ± 1.3 nM.
Then B5, with 50 ± 13 nM.
As to B6, the Kd is 4.3 ± 0.8 nM.
Consider B7, for which the Kd came out at 8.1 ± 1.3 nM.
B8 returned a Kd of 17.7 ± 2.6 nM.
In the case of B9 it was 3 ± 0.32 nM; in that of B10, 15.5 ± 1.6 nM; in that of B11, 9.6 ± 2.3 nM.
Then B12, with 3.8 ± 0.4 nM; and B13, with 31 ± 5 nM; and B14, with 10.9 ± 1.9 nM.
Turning to B15, the Kd worked out at 18.5 ± 1.4 nM.
For B16, binding was put at a Kd of 8.1 ± 0.7 nM.
Then B17, with 3.22 ± 0.27 nM; and B18, with 9.5 ± 1.9 nM; and B19, with 4.9 ± 0.6 nM.
In the case of B20 it was 14.2 ± 1.4 nM; in that of B21, 27 ± 6 nM.
In the case of B22 it was 11.8 ± 0.6 nM; in that of B23, 26.2 ± 2.8 nM.
